B1: Ankyrin repeat and SOCS box protein 14, residues 532 to 572; numbered along this chain, A6NK59 (parent)
chain: RSLKHLCRLKIRKCMGRLHLRCPVFMSFLPLPNRLKAYVLY
B2: GA-binding protein alpha chain, residues 172 to 250; numbered along this chain, Q06546 (parent)
chain: GYRKEQERLGIPYDPIQWSTDQVLHWVVWVMKEFSMTDIDLTTLNISGRELCSLNQEDFFQRVPRGEILWSHLELLRKY

Variants of: B1
Test: abundance fitness (aPCA) (normalised: wild type 0, dead -1); higher = more abundant; growth selection in yeast, the domain comes from the species named
Details: Homo sapiens

Abundance fitness: each site, then its substitutions
R1: W 0.045; G -0.042; A -0.414; C -0.113; N 0.093; V -0.1; M 0.386; S -0.39; K -0.107; E -0.033; T -0.372; F 0.243
H5: C -0.043; A -0.137
S2: I 0.335; R -0.153; E -0.057; P -0.521; C -0.572; K -0.053; V -0.339; A -0.37; L 0.136; D 0.299; T -0.196; M 0.48; W -0.097
L3: W 0.011; Q -0.655; M -0.163; R -0.759; D -0.331; G -0.686; K -0.575; H -0.878; C -0.517; A -0.939; P -0.949; T -0.668; V -0.547; N -0.529; E -0.142
K4: G -0.157; A 0.041; Q -0.425; E -0.596; P -0.233; S -0.135; Y 0.34; L 0.157; T 0.031; R -0.155; M -0.002; D -0.808; V -0.174; W 0.051; N -0.344

Variants of: B2
Test: as above
Details: Homo sapiens

Abundance fitness: each site, then its substitutions
L76: W -0.621; Q -0.416; H -0.317; R -0.677; G -0.95; F -0.354; P -0.727; K -0.876; V -0.182; A -0.534; M -0.093; T -0.29; C -0.119; S -0.676; E -0.521; I -0.236
E74: G -0.066; V -0.213; Q -0.075; K -0.106; W -0.336; P -0.904; C -0.138; F -0.322; T -0.161; D -0.023; N -0.226; I -0.302; L -0.109; A -0.061; S -0.051; Y -0.287
E67: D -0.133; W -0.153; S -0.057; L -0.249; P -0.239; A -0.029; N -0.077; C -0.19; Q -0.121; G -0.027; H 0.004; I -0.189; F -0.249; K 0.064; T -0.038; R -0.101; M -0.147; V -0.118
L69: F -0.027; P -1.06; D -0.758; M -0.124; S -0.882; G -1.04; C -0.57; V -0.393; H -0.259; R -0.977; K -1; I -0.499; A -0.311; Y -0.265; N -0.974; W -0.432; E -0.934
G66: V -0.835; L -0.795; P -0.019; R -0.562; A -0.025; C -0.298; S -0.199; K -0.728; M -0.967; T -0.735; Q -0.773; I -0.772; D -0.889; H -0.608
P64: A -0.295; M -0.952; F -0.611; E -0.23; I -0.554; K -0.159; Q -0.266; T -0.333; W -0.67; C -0.288; Y -0.744; V -0.406; D -0.738; G -0.158; S -0.219; N -0.177
S71: Y -0.027; N -0.115; F -0.102; G -0.01; T 0.021; W -0.042; Q 0.01; E -0.021; L -0.156; K -0.102; C -0.167; H -0.029; I -0.157; V -0.131; A -0.046; D 0.027; P -0.102; M -0.162; R -0.034
W70: T -1.05; F -0.181; A -0.748; K -0.872; R -0.526; C -0.793; V -0.92; Y -0.058; N -0.766; S -0.913; M -0.557; G -0.843; Q -0.875; H -0.494; E -0.801
K78: S -0.045; D 0.023; N 0.096; P -0.195; L -0.135; W -0.23; R 0.003; Q -0.059; I -0.009; G 0.033; F -0.086; H -0.015; E -0.05; Y -0.208; V -0.078; A 0; M -0.071
L75: W -0.104; F -0.136; M -0.042; I 0.107; E 0.024; R -0.012; G -0.132; V -0.193; Q -0.08; D -0.022; S 0.046; T 0.024; A -0.02; K -0.122; Y 0.01; H 0.031
L73: M -0.347; Y -0.962; G -0.937; W -0.173; E -0.758; Q -0.713; N -0.979; C -0.979; T -0.97; P -0.658; I -0.542; K -0.422; V -0.376; A -0.736
V63: K -0.864; Q -0.235; H -0.886; M -0.113; C -0.012; Y -0.221; F 0.018; R -1.06; N -0.384; I -0.077; E -0.563; D -0.667; W -0.042; P -0.667; G -0.218; L -0.073; T -0.172
Y79: A -0.021; F 0.062; N 0.107; H 0.002; V -0.096; E 0.01; T -0.148; K 0.146; S 0.038; I -0.09; M -0.299; R -0.054; W -0.09; L -0.032; Q 0.006; C -0.061; P 0.009; G 0.031; D 0.06
H72: P -1; E 0.009; T -0.38; L -0.751; I -0.338; R -0.295; K -0.282; S -0.143; Y -0.46; M -0.322; F -0.888; V -0.554; A -0.244; Q 0.019; W -1.02; D -0.214
I68: N -0.194; Y -0.037; P 0.023; W -0.115; G -0.087; C -0.055; S -0.076; T -0.065; H -0.095; Q -0.077; L -0.037; A 0.017; M -0.091; F -0.053; E -0.044; V -0.021
R65: H -0.111; Y -0.033; L -0.141; G 0.007; K -0.013; V -0.157; A -0.003; C -0.004; D 0.084; F -0.177; E 0.033; M -0.127; N -0.07; P -0.455
R77: T -0.246; I -0.23; S -0.311; W -0.873; K 0.016; E -0.36; D -0.382; A -0.547; H -0.07; N -0.119; G -0.515; L -0.165; V -0.343; Q -0.299; F -0.859; M -0.348; C -0.255
